According to patent US6689567 (UNIVERSITY OF GUELPH, dated 2004):

Target: the molecule itself
Assay: gel filtration on G100 Sephadex; self-association (homodimer)

B1: FlaA1 from Helicobacter pylori carrying a N-terminal hexahistidine tag (enzyme)
chain: MHHHHHHGSMSMPNHQNMLDNQTILITGGTGSFGKCFVRKVLDTTNAKKIIVYSRDELKQSEMAMEFNDPRMRFFIGDVRDLERLNYALEGVDICIHAAALKHVPIAEYNPLECIKTNIMGASNVINACLKNAISQVIALSTDKAANPINLYGATKLCSDKLFVSANNFKGSSQTQFSVVRYGNVVGSRGSVVPFFKKLVQNKASEIPITDIRMTRFWITLDEGVSFVLKSLKRMHGGEIFVPKIPSMKMTDLAKALAPNTPTKIIGIRPGEKLHEVMIPKDESHLALEFEDFFIIQPTISFQTPKDYTLTKLHEKGQKVAPDFEYSSHNNNQWLEPDDLLKLL
notes: Full-length FlaA1 with an N-terminal hexahistidine tag, overexpressed in E. coli (pET system) and purified; also called HP0840; His-FlaA1
B1: binds.
